These results are taken from patent publication US20260151494A1 (ARO BIOTHERAPEUTICS, published 2026).

Test [1] addresses T1, human CD71 extracellular domain (human, UniProt P02786 89-760).
T1 construct: also called hCD71; CD71-ECD
Put plainly: primary ELISA; also: test concentration or dose not given here; signal over HSA control. For orientation: In an ELISA, binding on a coated surface is turned into a signal by an enzyme label.

The target of test [2] is T2, human apical domain of CD71 (human, UniProt P02786 189-383, limits assumed).
T2 construct: domain: apical domain
T2 sequence (P02786 189-383 limits assumed): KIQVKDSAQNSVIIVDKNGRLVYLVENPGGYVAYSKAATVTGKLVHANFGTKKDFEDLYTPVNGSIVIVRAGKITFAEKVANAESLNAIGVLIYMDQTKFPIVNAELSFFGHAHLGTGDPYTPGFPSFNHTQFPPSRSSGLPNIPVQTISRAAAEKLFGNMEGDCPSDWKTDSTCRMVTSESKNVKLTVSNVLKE
Put plainly: primary ELISA; signal over HSA control. Also: test concentration or dose not given here.

For test [3], the target named is T1, human CD71 extracellular domain. The test is described as follows: primary ELISA. Also: test concentration or dose not given here.
Test [4] has as its target T2, human apical domain of CD71. The test is described as follows: primary ELISA. Also: test concentration or dose not given here.

T1 sequence (P02786 89-760): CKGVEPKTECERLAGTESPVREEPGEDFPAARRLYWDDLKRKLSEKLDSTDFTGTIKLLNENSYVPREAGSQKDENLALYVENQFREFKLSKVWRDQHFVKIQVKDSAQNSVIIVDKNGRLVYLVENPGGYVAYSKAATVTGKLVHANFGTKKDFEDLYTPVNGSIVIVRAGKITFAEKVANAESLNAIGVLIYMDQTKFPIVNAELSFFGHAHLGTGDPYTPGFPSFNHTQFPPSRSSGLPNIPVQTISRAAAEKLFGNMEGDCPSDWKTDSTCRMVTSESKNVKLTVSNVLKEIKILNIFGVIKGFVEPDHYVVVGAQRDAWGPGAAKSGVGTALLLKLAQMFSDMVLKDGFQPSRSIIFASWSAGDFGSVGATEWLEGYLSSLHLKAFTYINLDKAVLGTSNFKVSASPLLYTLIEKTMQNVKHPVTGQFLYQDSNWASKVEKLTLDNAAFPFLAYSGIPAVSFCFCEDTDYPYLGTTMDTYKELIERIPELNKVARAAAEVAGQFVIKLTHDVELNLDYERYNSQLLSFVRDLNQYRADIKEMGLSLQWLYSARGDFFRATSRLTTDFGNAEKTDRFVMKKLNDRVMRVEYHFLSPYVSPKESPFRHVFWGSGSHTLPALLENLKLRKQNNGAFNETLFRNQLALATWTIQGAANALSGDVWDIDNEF

B1: CD71-binding FN3 domain SEQ ID NO 410 (designed binder)
chain: MLPAPKNLVVSRVTEDSARLSWTAPDAAFDSFFIGYLEPQPPGEAIALWVPGSERSYDLTGLKPGTEYNVTIQGVKGGFPSQPLHAHFTT
For B1, the “hCD71:HSA” value in test [1] worked out at 46 ratio. Moreover, the “Apical domain:HSA” value in test [2] came out at 379 ratio. The RLU came out at 3.9e+06 RLU in test [3] and 3.2e+06 RLU in test [4].

B2: CD71-binding FN3 domain SEQ ID NO 421 (designed binder)
chain: MLPAPKNLVVSRVTEDSARLSWTAPDAAFDSFFIGYLEPQPPGEAIDLWVPGSERSYDLTGLKPGTEYNVTIQGVKGGFPSMPLEAVFTT
notes: The cell prints '42'
As for B2, in test [1], the “hCD71:HSA” value was determined as 167 ratio. The “Apical domain:HSA” value in test [2] was determined as 398 ratio. Besides, the RLU in test [3] came out at 1.76e+06 RLU; in test [4], 4.2e+06 RLU.

B3: CD71-binding FN3 domain SEQ ID NO 433 (designed binder)
chain: MLPAPKNLVVSRVTEDSARLSWTAPDAAFDSFFIGYLEPQPPGEAIALYVPGSERSYDLTGLKPGTEYNVTIQGVKGGFPSLPLEANFTT
With B3, the “hCD71:HSA” value in test [1] worked out at 169 ratio. Also, the “Apical domain:HSA” value in test [2] was 184 ratio. Besides, the RLU in test [3] worked out at 3.26e+06 RLU; in test [4] it was 3.57e+06 RLU.

B4: CD71-binding FN3 domain SEQ ID NO 411 (designed binder)
chain: MLPAPKNLVVSRVTEDSARLSWTAPDAAFDSFFIGYLEPQPPGEAISLFVPGSERSYDLTGLKPGTEYNVTIQGVKGGFPSVPLSATFTT
For the molecule B4, the “hCD71:HSA” value in test [1] turned out to be 261 ratio. In addition, in test [2], the “Apical domain:HSA” value came to 318 ratio. Moreover, the values for the RLU in test [3] and in test [4] were 5.23e+06 RLU and 6.36e+06 RLU, respectively.

B5: CD71-binding FN3 domain SEQ ID NO 419 (designed binder)
chain: MLPAPKNLVVSRVTEDSARLSWTAPDAAFDSFFIGYLEPQPPGEAIALLVPGSERSYDLTGLKPGTEYNVTIQGVKGGFPSSPLNAYFTT
As to B5, the “hCD71:HSA” value in test [1] was found to be 211 ratio. Moreover, the “Apical domain:HSA” value in test [2] was 269 ratio. Also, the RLU in test [3] was found to be 3.6e+06 RLU; in test [4], 4.59e+06 RLU.

B6: CD71-binding FN3 domain SEQ ID NO 417 (designed binder)
chain: MLPAPKNLVVSRVTEDSARLSWTAPDAAFDSFFIGYLEPQPPGEAIQLFVPGSERSYDLTGLKPGTEYNVTIQGVKGGFPSDPLVASFTT
For B6, the “hCD71:HSA” value in test [1] was found to be 305 ratio. Besides, the “Apical domain:HSA” value in test [2] was 417 ratio. The RLU in test [3] stood at 4.51e+06 RLU; in test [4] it was 6.17e+06 RLU.

B7: CD71-binding FN3 domain SEQ ID NO 424 (designed binder)
chain: MLPAPKNLVVSRVTEDSARLSWTAPDAAFDSFFIGYLEPQPPGEAIHLIVPGSERSYDLTGLKPGTEYNVTIQGVKGGFPSDPLDASFTT
Turning to B7, in test [1], the “hCD71:HSA” value was 117 ratio. Moreover, the “Apical domain:HSA” value in test [2] was 155 ratio. The RLU came to 3.9e+06 RLU in test [3] and 5.16e+06 RLU in test [4].

B8: CD71-binding FN3 domain SEQ ID NO 416 (designed binder)
chain: MLPAPKNLVVSRVTEDSARLSWTAPDAAFDSFFIGYLEPQPPGEAIALYVPGSERSYDLTGLKPGTEYNVTIQGVKGGFPSLPLVATFTT
With B8, the “hCD71:HSA” value in test [1] was determined as 54 ratio. Besides, the “Apical domain:HSA” value in test [2] stood at 52 ratio. Further, the RLU in test [3] is 6.6e+06 RLU; in test [4] it was 6.32e+06 RLU.

B9: CD71-binding FN3 domain SEQ ID NO 413 (designed binder)
chain: MLPAPKNLVVSRVTEDSARLSWTAPDAAFDSFFIGYLEPQPPGEAIYLRVPGSERSYDLTGLKPGTEYNVTIQGVKGGFPSAPLHAHFTT
With B9, the “hCD71:HSA” value in test [1] came out at 287 ratio. Also, the “Apical domain:HSA” value in test [2] was found to be 370 ratio. The values for the RLU in test [3] and in test [4] were 3.86e+06 RLU and 4.98e+06 RLU, respectively.

B10: CD71-binding FN3 domain SEQ ID NO 434 (designed binder)
chain: MLPAPKNLVVSRVTEDSARLSWTAPDAAFDSFFIGYLEPQPPGEAIGLQVPGSERSYDLTGLKPGTEYNVTIQGVKGGFPSDPLQAIFTT
As for B10, the “hCD71:HSA” value in test [1] came out at 313 ratio. Besides, the “Apical domain:HSA” value in test [2] was determined as 403 ratio. The RLU in test [3] was determined as 3.13e+06 RLU; in test [4], 4.03e+06 RLU.

B11: CD71-binding FN3 domain SEQ ID NO 412 (designed binder)
chain: MLPAPKNLVVSRVTEDSARLSWTAPDAAFDSFFIGYLEPQPPGEAIGLLVPGSERSYDLTGLKPGTEYNVTIQGVKGGFPSHPLLAVFTT
Take B11: the “hCD71:HSA” value in test [1] amounted to 112 ratio. Moreover, the “Apical domain:HSA” value in test [2] turned out to be 153 ratio. For the same molecule, the results for the RLU in test [3] and in test [4] were 4.37e+06 RLU and 6e+06 RLU, respectively.

B12: CD71-binding FN3 domain SEQ ID NO 432 (designed binder)
chain: MLPAPKNLVVSRVTEDSARLSWTAPDAAFDSFFIGYLEPQPPGEAIALYVPGSERSYDLTGLKPGTEYNVTIQGVKGGFPSGPLEAYFTT
B12: the “hCD71:HSA” value in test [1] is 94 ratio. Besides, the “Apical domain:HSA” value in test [2] was 79 ratio. Further, the figures for the RLU in test [3] and in test [4] were 3.73e+06 RLU and 3.11e+06 RLU, respectively.

B13: CD71-binding FN3 domain SEQ ID NO 435 (designed binder)
chain: MLPAPKNLVVSRVTEDSARLSWTAPDAAFDSFFIGYLEPQPPGEAIALWVPGSERSYDLTGLKPGTEYNVTIQGVKGGFPSHPLAAVFTT
B13: the “hCD71:HSA” value in test [1] is 210 ratio. In addition, the “Apical domain:HSA” value in test [2] was determined as 319 ratio. For the same molecule, the values for the RLU in test [3] and in test [4] were 3.62e+06 RLU and 5.5e+06 RLU, respectively.

B14: CD71-binding FN3 domain SEQ ID NO 430 (designed binder)
chain: MLPAPKNLVVSRVTEDSARLSWTAPDAAFDSFFIGYLEPQPPGEAIDLWVPGSERSYDLTGLKPGTEYNVTIQGVKGGFPSYPLSASFTT
In the case of B14, the “hCD71:HSA” value in test [1] is 126 ratio. Moreover, the “Apical domain:HSA” value in test [2] came out at 124 ratio. The RLU in test [3] stood at 3.64e+06 RLU; in test [4] it was 3.58e+06 RLU.

B15: CD71-binding FN3 domain SEQ ID NO 426 (designed binder)
chain: MLPAPKNLVVSRVTEDSARLSWTAPDAAFDSFFIGYLEPQPPGEAIFLLVPGSERSYDLTGLKPGTEYNVTIQGVKGGFPSMPLSAIFTT
B15: in test [1], the “hCD71:HSA” value came to 13 ratio. Moreover, the “Apical domain:HSA” value in test [2] came out at 176 ratio. Moreover, the RLU amounted to 4.43e+06 RLU in test [3] and 5.95e+06 RLU in test [4].

B16: CD71-binding FN3 domain SEQ ID NO 414 (designed binder)
chain: MLPAPKNLVVSRVTEDSARLSWTAPDAAFDSFFIGYLEPQPPGEAIHLYVPGSERSYDLTGLKPGTEYNVTIQGVKGGFPSHPLIANFTT
Consider B16, for which, in test [1], the “hCD71:HSA” value stood at 86 ratio. In addition, the “Apical domain:HSA” value in test [2] came out at 79 ratio. For the same molecule, the RLU in test [3] stood at 6.71e+06 RLU; in test [4], 6.18e+06 RLU.

B17: CD71-binding FN3 domain SEQ ID NO 428 (designed binder)
chain: MLPAPKNLVVSRVTEDSARLSWTAPDAAFDSFFIGYLEPQPPGEAISLYVPGSERSYDLTGLKPGTEYNVTIQGVKGGFPSNPLIAQFTT
Turning to B17, in test [1], the “hCD71:HSA” value amounted to 195 ratio. Moreover, the “Apical domain:HSA” value in test [2] stood at 186 ratio. Further, the RLU in test [3] was found to be 6.19e+06 RLU; in test [4], 5.9e+06 RLU.

B18: CD71-binding FN3 domain SEQ ID NO 427 (designed binder)
chain: MLPAPKNLVVSRVTEDSARLSWTAPDAAFDSFFIGYLEPQPPGEAIHLRVPGSERSYDLTGLKPGTEYNVTIQGVKGGFPSDPLIAVFTT
With B18, in test [1], the “hCD71:HSA” value is 392 ratio. Moreover, the “Apical domain:HSA” value in test [2] was 612 ratio. The RLU came to 2.25e+06 RLU in test [3] and 3.52e+06 RLU in test [4].

B19: CD71-binding FN3 domain SEQ ID NO 420 (designed binder)
chain: MLPAPKNLVVSRVTEDSARLSWTAPDAAFDSFFIGYLEPQPPGEAIHLQVPGSERSYDLTGLKPGTEYNVTIHGVKGGIPSMPLSAKFTT
Regarding B19, the “hCD71:HSA” value in test [1] was found to be 402 ratio. The “Apical domain:HSA” value in test [2] was 495 ratio. Moreover, the RLU was found to be 3.2e+06 RLU in test [3] and 3.93e+06 RLU in test [4].

B20: CD71-binding FN3 domain SEQ ID NO 431 (designed binder)
chain: MLPAPKNLVVSRVTEDSARLSWTAPDAAFDSFFIGYLEPQPPGEAIVLFVPGSERSYDLTGLKPGTEYNVTIQGVKGGFPSNPLSAISTT
As to B20, the “hCD71:HSA” value in test [1] was found to be 89 ratio. Besides, the “Apical domain:HSA” value in test [2] is 88 ratio. Further, the RLU in test [3] is 4.4e+06 RLU; in test [4] it was 4.35e+06 RLU.

B21: CD71-binding FN3 domain SEQ ID NO 436 (designed binder)
chain: MLPAPKNLVVSRVTEDSARLSWTAPDAAFDSFFIGYLEPQPPGEAIHLLVPGSERSYDLTGLKPGTEYNVTIQGVKGGFPSEPLWAKFTT
Consider B21, for which, in test [1], the “hCD71:HSA” value came to 227 ratio. Moreover, the “Apical domain:HSA” value in test [2] was determined as 288 ratio. The RLU in test [3] stood at 4.46e+06 RLU; in test [4], 5.66e+06 RLU.

B22: CD71-binding FN3 domain SEQ ID NO 423 (designed binder)
chain: MLPAPKNLVVSRVTEDSARLSWTAPDAAFDSFFIGYLEPQPPGEAIALYVPGSERSYDLTGLKPGTEYNVTIQGVKGGFPSEPLVATFTT
Consider B22, for which the “hCD71:HSA” value in test [1] came to 58 ratio. Moreover, the “Apical domain:HSA” value in test [2] is 57 ratio. Further, the RLU is 6.63e+06 RLU in test [3] and 6.56e+06 RLU in test [4].

B23: CD71-binding FN3 domain SEQ ID NO 425 (designed binder)
chain: MLPAPKNLVVSRVTEDSARLSWTAPDAAFDSFFIGYLEPQPPGEAIGLLVPGSERSYDLTGLKPGTEYNVTIQGVKGGFPSNPLSAIFTT
In the case of B23, the “hCD71:HSA” value in test [1] stood at 247 ratio. Besides, the “Apical domain:HSA” value in test [2] worked out at 347 ratio. The RLU in test [3] is 4.44e+06 RLU; in test [4], 6.23e+06 RLU.

B24: CD71-binding FN3 domain SEQ ID NO 415 (designed binder)
chain: MLPAPKNLVVSRVTEDSARLSWTAPDAAFDSFFIGYLEPQPPGEAIHLQVPGSERSYDLTGLKPGTEYNVTIQGVKGGFPSMPLSAIFTT
As for B24, the “hCD71:HSA” value in test [1] worked out at 501 ratio. The “Apical domain:HSA” value in test [2] came out at 516 ratio. Besides, the RLU in test [3] came to 3.51e+06 RLU; in test [4], 3.61e+06 RLU.

B25: CD71-binding FN3 domain SEQ ID NO 422 (designed binder)
chain: MLPAPKNLVVSRVTEDSARLSWTAPDAAFDSFFIGYLEPQPPGEAISLLVPGSERSYDLTGLKPGTEYNVTIQGVKGGFPSHPLDASFTT
For the molecule B25, the “hCD71:HSA” value in test [1] is 171 ratio. For the same molecule, the “Apical domain:HSA” value in test [2] is 340 ratio. The figures for the RLU in test [3] and in test [4] were 2.97e+06 RLU and 5.88e+06 RLU, respectively.
